From article PMC11705898

Tests used:
[1] = target: S. aureus PitR with amino terminal histidine tag (pETphoU2_6xHN) (S. aureus Mu50); assay: SEC; HiPrep 16/60 Sephacryl S-200 HR, 50 mM NaPO4, 150 mM NaCl pH 7.0, 0.5 mL/min; elution volume compared with volumes calculated from protein standards; loaded immediately after Ni purification
[2] = target: S. aureus PhoU with amino terminal histidine tag (pETphoU1_6xHN) (S. aureus Mu50); assay: as above

Substance | stoichiometry N [1] | stoichiometry N [2]
S. aureus PitR with amino terminal histidine tag (pETphoU2_6xHN) (natural protein) | 2 | –
S. aureus PhoU with amino terminal histidine tag (pETphoU1_6xHN) (natural protein) | – | 2
